Measured values reported in patent US20180008723A1 (UNIVERSITE DES SCIENCES ET TECHNOLOGIES DE LILLE LILLE 1, published 2018).

B1: K1B (biotinylated K1 domain of HGF/SF, residues 125-209 with C-terminal GGK(biotin) extension) (ligand)
chain: IRNCIIGKGRSYKGTVSITKSGIKCQPWSSMIPHEHSFLPSSYRGKDLQENYCRNPRGEEGGPWCFTSNPEVRYEVCDIPQCSEVGGK
modifications: C-terminal lysine of the GGK extension modified on its side chain with a biotin group; three native disulfide bonds
notes: also called K1-Biot; biotinylated version of the K1 domain
B2: NB (ligand, human, UniProt P14210 31-127, looked up)
single chain: GQRKRRNTIHEFKKSAKTTLIKIDPALKIKTKKVNTADQCANRCTRNKGLPFTCKAFVFDKARKQCLWFPFNSMSSGVKKEFGHEFDLYENKDYIRN
modifications: biotinylated; the site is not stated for NB
notes: isolated N domain, chemically synthesised and biotinylated, not pre-mixed with soluble streptavidin; It is distinct from m9, the NB/S complex pre-mixed 2:1 with streptavidin; In both assays NB is presented on streptavidin-coated beads; also called biotinylated N domain of HGF/SF

Columns and labels:
[1] = target: T1, MET-Fc (extracellular MET domain fused with human IgG1-Fc) (human, UniProt P08581 25-932); assay: AlphaScreen saturation assay: K1B on streptavidin-coated donor beads, MET-Fc on Protein A-coated acceptor beads (apparent, multivalent display); saturation assay; K1B on streptavidin-coated donor beads (apparent KD, avidity possible)
T1 construct: extracellular domain; Recombinant chimera; also called recombinant extracellular MET-Fc chimera; hMET-Fc; not shown: human IgG1 Fc
Experimental: (§1) FIG. 4. K1B and NB MET binding properties. (a) Structure of NK1 dimer (center, PDB 1BHT) and spatial relative orientation of each N (left) and K1 (right) monomers within the dimer. Dashed arrows indicate distances between subdomain C-termini. (b) NB, K1B and MET-Fc binding assay. Increasing concentrations of NB or K1B were mixed with extracellular MET domain fused with human IgG1-Fc (MET-Fc), and incubated with streptavidin AlphaScreen donor beads and Protein A acceptor beads. Error bars correspond to standard error (+/−SD) of triplicates. (c) Endogenous MET capture. Streptavidin coated beads loaded with NB or K1B were incubated with HeLa or Capan-1 total cell lysates. Input, flow-through and elution fractions from NB or K1 loaded beads were analyzed by specific total MET western blot.
(§2) The binding of K1B/S complexes to MET was examined using AlphaScreen technology. K1B was loaded on streptavidin-coated donor beads and incubated with recombinant extracellular MET-Fc chimera loaded on Protein A-coated acceptor beads. If K1B/S donor beads interact with MET-Fc/Protein A acceptor beads, a chemical energy transfer is possible between the beads, leading to fluorescence emission upon laser excitation. […]

[2] = target: T1, MET-Fc (extracellular MET domain fused …); assay: AlphaScreen saturation assay: K1B on streptavidin donor beads, MET-Fc on Protein A acceptor beads
Experimental: as §1, §2

[3] = target: T1, MET-Fc (extracellular MET domain fused …); assay: AlphaScreen saturation assay; the reference is a literature value that is not given
Experimental: as §1, with “Dashed” for “FIG. 4. K1B and NB MET binding properties. (a) Structure of NK1 dimer (center, PDB 1BHT) and spatial relative orientation of each N (left) and K1 (right) monomers within the dimer. Dashed”
The binding of K1B/S complexes to MET was examined using AlphaScreen technology. K1B was loaded on streptavidin-coated donor beads and incubated with recombinant extracellular MET-Fc chimera loaded on Protein A-coated acceptor beads. If K1B/S donor beads interact with MET-Fc/Protein A acceptor beads, a chemical energy transfer is possible between the beads, leading to fluorescence emission upon laser excitation. […] Since the bead-based AlphaScreen assay can generate avidity and thus introduce a bias in the estimation of the apparent KD in saturation experiments, it was performed the reciprocal competition assay by adding increasing concentrations of preformed K1B/S complex (2:1 molar ratio) into the K1B/MET-Fc/AlphaScreen bead mixture (FIG. 6). […]

[4] = target: T2, endogenous MET receptor of human cells (HeLa, Capan-1) (human, UniProt P08581 25-1390); assay: pull-down of endogenous MET from HeLa and Capan-1 total cell lysates on streptavidin beads loaded with NB, total MET western blot
T2 construct: whole, on cells; On living HeLa cells in the signalling assays; from whole cell lysates of HeLa or Capan-1 cells in the capture experiment; also called tyrosine kinase receptor MET
Experimental: as §1
HeLa and Capan-1 cells were collected by scraping and then lysed on ice with a lysis buffer (20 mM Tris HCl, 50 mM NaCl, 5 mM EDTA and 1% Triton X-100). Lysates were clarified by centrifugation (20,000 g×15 min) and protein concentration was determined (BCA protein assay Kit, Pierce®, Thermo scientific, IL, USA). Streptavidin-Sepharose beads (GE Healthcare) were washed and equilibrated in PBS. Beads were loaded with 15 μg K1B or NB (100 μl beads in a 50:50 PBS:bead slurry) for 20 min at room temperature and immediately washed with PBS. […] Elution fractions were then analyzed by western blotting.

[5] = target: T1, MET-Fc (extracellular MET domain fused …); assay: AlphaScreen saturation assay: NB on streptavidin donor beads, MET-Fc on Protein A acceptor beads
Experimental: as §1, §2

T1 sequence (P08581 25-932): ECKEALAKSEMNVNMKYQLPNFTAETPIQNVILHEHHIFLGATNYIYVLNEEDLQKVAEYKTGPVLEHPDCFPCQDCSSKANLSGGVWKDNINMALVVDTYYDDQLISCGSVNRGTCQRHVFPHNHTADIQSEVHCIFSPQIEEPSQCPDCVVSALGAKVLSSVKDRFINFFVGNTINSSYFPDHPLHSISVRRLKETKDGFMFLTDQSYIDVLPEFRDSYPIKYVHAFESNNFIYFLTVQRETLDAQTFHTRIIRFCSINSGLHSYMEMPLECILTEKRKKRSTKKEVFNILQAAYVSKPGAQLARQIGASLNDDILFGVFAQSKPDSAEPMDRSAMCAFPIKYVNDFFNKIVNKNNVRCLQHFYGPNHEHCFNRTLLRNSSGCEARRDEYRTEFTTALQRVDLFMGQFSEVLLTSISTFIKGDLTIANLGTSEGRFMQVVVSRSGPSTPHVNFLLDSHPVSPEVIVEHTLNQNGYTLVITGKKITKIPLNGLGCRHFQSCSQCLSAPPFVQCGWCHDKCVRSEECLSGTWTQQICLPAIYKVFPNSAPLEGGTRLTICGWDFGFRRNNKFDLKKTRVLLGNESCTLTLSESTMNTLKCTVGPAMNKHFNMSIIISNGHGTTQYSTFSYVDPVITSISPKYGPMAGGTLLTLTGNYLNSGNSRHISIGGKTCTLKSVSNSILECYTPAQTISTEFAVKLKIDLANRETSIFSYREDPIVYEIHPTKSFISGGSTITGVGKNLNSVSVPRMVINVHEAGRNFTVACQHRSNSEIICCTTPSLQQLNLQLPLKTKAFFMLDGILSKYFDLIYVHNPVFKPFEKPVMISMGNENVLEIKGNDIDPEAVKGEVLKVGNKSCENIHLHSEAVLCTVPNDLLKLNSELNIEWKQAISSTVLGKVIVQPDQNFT
T2 sequence (P08581 25-1390): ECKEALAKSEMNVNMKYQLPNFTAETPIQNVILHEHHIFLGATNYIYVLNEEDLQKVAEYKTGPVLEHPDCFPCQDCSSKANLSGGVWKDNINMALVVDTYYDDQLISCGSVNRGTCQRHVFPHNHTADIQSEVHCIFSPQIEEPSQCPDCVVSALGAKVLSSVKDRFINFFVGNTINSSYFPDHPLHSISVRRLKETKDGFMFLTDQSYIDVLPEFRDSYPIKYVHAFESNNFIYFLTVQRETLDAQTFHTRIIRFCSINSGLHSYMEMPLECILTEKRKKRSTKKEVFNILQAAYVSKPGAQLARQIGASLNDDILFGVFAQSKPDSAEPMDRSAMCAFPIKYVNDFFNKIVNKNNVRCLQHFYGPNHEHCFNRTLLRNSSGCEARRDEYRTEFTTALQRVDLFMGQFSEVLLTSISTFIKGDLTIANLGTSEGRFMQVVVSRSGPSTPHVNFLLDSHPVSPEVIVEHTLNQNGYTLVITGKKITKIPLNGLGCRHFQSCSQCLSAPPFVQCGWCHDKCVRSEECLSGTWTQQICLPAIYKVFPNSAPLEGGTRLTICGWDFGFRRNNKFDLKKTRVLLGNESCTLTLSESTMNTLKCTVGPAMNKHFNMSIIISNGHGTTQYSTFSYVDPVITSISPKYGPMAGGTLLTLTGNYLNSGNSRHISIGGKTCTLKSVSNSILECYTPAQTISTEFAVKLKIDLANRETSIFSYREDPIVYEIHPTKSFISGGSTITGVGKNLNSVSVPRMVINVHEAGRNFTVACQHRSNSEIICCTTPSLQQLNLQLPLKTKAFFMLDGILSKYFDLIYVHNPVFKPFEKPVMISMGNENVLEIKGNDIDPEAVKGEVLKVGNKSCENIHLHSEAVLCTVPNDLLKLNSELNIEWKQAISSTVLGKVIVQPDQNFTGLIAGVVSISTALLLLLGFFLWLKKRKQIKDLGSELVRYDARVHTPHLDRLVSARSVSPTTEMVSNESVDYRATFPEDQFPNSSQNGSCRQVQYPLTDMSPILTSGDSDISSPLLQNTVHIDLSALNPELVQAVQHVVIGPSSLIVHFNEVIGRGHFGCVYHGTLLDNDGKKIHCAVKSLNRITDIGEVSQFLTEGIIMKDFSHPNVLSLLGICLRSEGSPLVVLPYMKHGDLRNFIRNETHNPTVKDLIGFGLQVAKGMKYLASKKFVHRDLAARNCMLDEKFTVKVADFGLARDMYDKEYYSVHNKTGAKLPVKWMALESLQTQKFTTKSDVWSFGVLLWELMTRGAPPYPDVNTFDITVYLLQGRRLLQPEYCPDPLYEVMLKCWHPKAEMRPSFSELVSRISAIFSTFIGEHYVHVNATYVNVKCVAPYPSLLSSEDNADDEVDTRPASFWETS

| Binder | Kd [1] [nM] | EC50 (read off the curve) [2] [nM] | fold lower apparent KD than the KD reported for monomeric K1 protein-MET interaction [3] [fold] | binding result [4] | binding result [5] |
| --- | --- | --- | --- | --- | --- |
| B1 | ~16 | ~20 | ~100 |  |  |
| B2 |  |  |  | no binding | no binding (tested: 300 nM) |
